Results: patent US11306156
Where “and” joins values, the source holds several entries; their conditions need not be identical. Equal entries are not always repeated. One block for each substance: values may come before it.

What was measured:
[1] = biological target: D3H44 light chain T178R (Kabat) with N-terminal HA or FLAG tag; experiment: LCCA, SPR read-out of light-chain tags; light-chain DNA 1:3 normalized to 1:1; competing light chain m17
[2] = biological target: D3H44 light chain Q124R_T178R (Kabat) with N-terminal HA or FLAG tag; experiment: as above
[3] = biological target: D3H44 light chain Q124K_T178R (Kabat) with N-terminal HA or FLAG tag; experiment: as above
[4] = biological target: D3H44 light chain Q124R_Q160K_T178R (Kabat) with N-terminal HA or FLAG tag; experiment: as above
[5] = biological target: D3H44 light chain Q124E_Q160E_T180E (Kabat) with N-terminal HA or FLAG tag; experiment: LCCA, SPR read-out of light-chain tags; light-chain DNA 1:3 normalized to 1:1; competing light chain m20
[6] = biological target: D3H44 light chain Q124E_Q160E_T180E (Kabat) with N-terminal HA or FLAG tag; experiment: LCCA, SPR read-out of light-chain tags; light-chain DNA 1:3 normalized to 1:1; competing light chain m21
[7] = biological target: D3H44 light chain Q124E_Q160E_T180E (Kabat) with N-terminal HA or FLAG tag; experiment: LCCA, SPR read-out of light-chain tags; light-chain DNA 1:3 normalized to 1:1; competing light chain m16
[8] = biological target: D3H44 light chain Q124E_Q160E_T180E (Kabat) with N-terminal HA or FLAG tag; experiment: LCCA, SPR read-out of light-chain tags; light-chain DNA 1:9 normalized to 1:1; competing light chain m21
[9] = biological target: D3H44 light chain Q124E_Q160E_T180E (Kabat) with N-terminal HA or FLAG tag; experiment: LCCA, SPR read-out of light-chain tags; light-chain DNA 1:3 normalized to 1:1; competing light chain m18
[10] = biological target: D3H44 light chain Q124R_T178R (Kabat) with N-terminal HA or FLAG tag; experiment: LCCA, SPR read-out of light-chain tags; light-chain DNA 1:9 normalized to 1:1; competing light chain m17
[11] = biological target: D3H44 light chain Q124E_S131T_T178F_T180E (Kabat) with N-terminal HA or FLAG tag; experiment: LCCA, SPR read-out of light-chain tags; light-chain DNA 1:3 normalized to 1:1; competing light chain m20
[12] = biological target: D3H44 light chain S131E (Kabat) with N-terminal HA or FLAG tag; experiment: as above
[13] = biological target: D3H44 light chain Q124R_Q160K_T178R (Kabat) with N-terminal HA or FLAG tag; experiment: LCCA, SPR read-out of light-chain tags; light-chain DNA 1:3 normalized to 1:1; competing light chain m22
[14] = biological target: D3H44 light chain Q124R_Q160K_T178R (Kabat) with N-terminal HA or FLAG tag; experiment: LCCA, SPR read-out of light-chain tags; light-chain DNA 1:3 normalized to 1:1; competing light chain m30
[15] = biological target: D3H44 light chain Q124R_Q160K_T178R (Kabat) with N-terminal HA or FLAG tag; experiment: LCCA, SPR read-out of light-chain tags; light-chain DNA 1:3 normalized to 1:1; competing light chain m28
[16] = biological target: D3H44 light chain Q124E_S176L_T180E (Kabat) with N-terminal HA or FLAG tag; experiment: LCCA, SPR read-out of light-chain tags; light-chain DNA 1:3 normalized to 1:1; competing light chain m20
[17] = biological target: D3H44 light chain Q124E_S131T_T178Y_T180E (Kabat) with N-terminal HA or FLAG tag; experiment: as above
[18] = biological target: D3H44 light chain Q124R_Q160K_T178R (Kabat) with N-terminal HA or FLAG tag; experiment: LCCA, SPR read-out of light-chain tags; light-chain DNA 1:3 normalized to 1:1; competing light chain m29
[19] = biological target: D3H44 light chain Q124E_V133E_Q160F (Kabat) with N-terminal HA or FLAG tag; experiment: LCCA, SPR read-out of light-chain tags; light-chain DNA 1:3 normalized to 1:1; competing light chain m23
[20] = biological target: D3H44 light chain Q124E_T178E (Kabat) with N-terminal HA or FLAG tag; experiment: LCCA, SPR read-out of light-chain tags; light-chain DNA 1:3 normalized to 1:1; competing light chain m20
[21] = biological target: D3H44 light chain Q124E_Q160E_T178E (Kabat) with N-terminal HA or FLAG tag; experiment: as above
[22] = biological target: D3H44 light chain Q124R_Q160K_T178R (Kabat) with N-terminal HA or FLAG tag; experiment: LCCA, SPR read-out of light-chain tags; light-chain DNA 1:3 normalized to 1:1; competing light chain m27
[23] = biological target: D3H44 light chain Q124R_Q160K_T178R (Kabat) with N-terminal HA or FLAG tag; experiment: LCCA, SPR read-out of light-chain tags; light-chain DNA 1:3 normalized to 1:1; competing light chain m25
[24] = biological target: D3H44 light chain Q124R (Kabat) with N-terminal HA or FLAG tag; experiment: LCCA, SPR read-out of light-chain tags; light-chain DNA 1:3 normalized to 1:1; competing light chain m24
[25] = biological target: D3H44 Fab heavy chain L143E_K145T; experiment: LCCA, L1:L2 DNA 1:3 normalised to 1:1, SPR of light chain tags; competitor m32
[26] = biological target: D3H44 light chain Q124R_T178K (Kabat) with N-terminal HA or FLAG tag; experiment: LCCA, SPR read-out of light-chain tags; light-chain DNA 1:3 normalized to 1:1; competing light chain m17
[27] = biological target: D3H44 light chain T178R (Kabat) with N-terminal HA or FLAG tag; experiment: LCCA, SPR read-out of light-chain tags; light-chain DNA 1:3 normalized to 1:1; competing light chain m19
[28] = biological target: D3H44 light chain Q124E_Q160E_T180E (Kabat) with N-terminal HA or FLAG tag; experiment: LCCA, SPR read-out of light-chain tags; light-chain DNA 1:3 normalized to 1:1; competing light chain m26
[29] = biological target: D3H44 light chain Q124E_T180E (Kabat) with N-terminal HA or FLAG tag; experiment: LCCA, SPR read-out of light-chain tags; light-chain DNA 1:3 normalized to 1:1; competing light chain m18
[30] = biological target: D3H44 light chain Q124E_S131T_T178F_T180E (Kabat) with N-terminal HA or FLAG tag; experiment: LCCA, SPR read-out of light-chain tags; light-chain DNA 1:3 normalized to 1:1; competing light chain m21
[31] = biological target: D3H44 light chain Q124R_T178R (Kabat) with N-terminal HA or FLAG tag; experiment: LCCA, SPR read-out of light-chain tags; light-chain DNA 1:3 normalized to 1:1; competing light chain m22
[32] = biological target: D3H44 Fab heavy chain L143E_K145T_S188L; experiment: LCCA, L1:L2 DNA 1:3 normalised to 1:1, SPR of light chain tags; competitor m33
[33] = biological target: D3H44 Fab heavy chain L143A_Q179K; experiment: as above

Substance: D3H44 Fab heavy chain L143E_K145T_Q179D (Kabat) with C-terminal ABD2-His6 tag
H1L1:H1L2 normalized median ratio [1]: 76%
H1L1:H1L2 normalized median scalar value ln(r1/f1) [1]: 1.13
H1L1:H1L2 normalized median ratio [2]: 87%
H1L1:H1L2 normalized median scalar value ln(r1/f1) [2]: 1.9
H1L1:H1L2 normalized median ratio [3]: 86%
H1L1:H1L2 normalized median scalar value ln(r1/f1) [3]: 1.78
H1L1:H1L2 normalized median ratio [4]: 84%
H1L1:H1L2 normalized median scalar value ln(r1/f1) [4]: 1.68
H1L1:H1L2 normalized median ratio [5]: 16%
H1L1:H1L2 normalized median ratio [6]: 13%
H1L1:H1L2 normalized median ratio [7]: 14%
H1L1:H1L2 normalized median ratio [8]: 18%
H1L1:H1L2 normalized median ratio [9]: 24%
H1L1:H1L2 normalized median ratio [10]: 82%
H1L1:H1L2 normalized median scalar value ln(r1/f1) [10]: 1.55

Substance: D3H44 Fab heavy chain Q179R (Kabat) with C-terminal ABD2-His6 tag
H2L2:H2L1 normalized median ratio [11]: 96%
H2L2:H2L1 normalized median ratio [12]: 97%
H2L2:H2L1 normalized median ratio [13]: 4%
H2L2:H2L1 normalized median ratio [14]: 3%

Substance: D3H44 Fab heavy chain L143E_K145T_S188L (Kabat) with C-terminal ABD2-His6 tag
H1L1:H1L2 normalized median ratio [15]: 57%
H1L1:H1L2 normalized median scalar value ln(r1/f1) [15]: 0.28
H1L1:H1L2 normalized median ratio [16]: 43%
H1L1:H1L2 normalized median ratio [17]: 26%
H1L1:H1L2 normalized median ratio [11]: 41%
H1L1:H1L2 normalized median ratio [18]: 74%
H1L1:H1L2 normalized median scalar value ln(r1/f1) [18]: 1.03
H1L1:H1L2 normalized median ratio [13]: 59%
H1L1:H1L2 normalized median scalar value ln(r1/f1) [13]: 0.37

Substance: D3H44 Fab heavy chain L143R (Kabat) with C-terminal ABD2-His6 tag
H2L2:H2L1 normalized median ratio [19]: 83%
H2L2:H2L1 normalized median ratio [24]: 17%

Substance: D3H44 Fab heavy chain S186R (Kabat) with C-terminal ABD2-His6 tag
H2L2:H2L1 normalized median ratio [1]: 28%
H2L2:H2L1 normalized median ratio [2]: 19%
H2L2:H2L1 normalized median ratio [3]: 18%
H2L2:H2L1 normalized median ratio [4]: 20%
H2L2:H2L1 normalized median ratio [26]: 17%
H2L2:H2L1 normalized median ratio [15]: 5%
H2L2:H2L1 normalized median ratio [5]: 80%
H2L2:H2L1 normalized median ratio [16]: 95%
H2L2:H2L1 normalized median ratio [20]: 96%
H2L2:H2L1 normalized median ratio [17]: 88%
H2L2:H2L1 normalized median ratio [11]: 90%
H2L2:H2L1 normalized median ratio [21]: 95%
H2L2:H2L1 normalized median ratio [18]: 12%
H2L2:H2L1 normalized median ratio [22]: 4%
H2L2:H2L1 normalized median ratio [6]: 81%
H2L2:H2L1 normalized median ratio [30]: 90%
H2L2:H2L1 normalized median ratio [31]: 10%
H2L2:H2L1 normalized median ratio [13]: 10%
H2L2:H2L1 normalized median ratio [7]: 82%
H2L2:H2L1 normalized median ratio [27]: 4%
H2L2:H2L1 normalized median ratio [28]: 83%
H2L2:H2L1 normalized median ratio [23]: 5%
H2L2:H2L1 normalized median ratio [8]: 86%
H2L2:H2L1 normalized median ratio [9]: 72%
H2L2:H2L1 normalized median ratio [29]: 96%
H2L2:H2L1 normalized median ratio [10]: 14%

Substance: D3H44 light chain Q124E_V133Y_T180E
H2L2:H2L1 normalized median ratio [32]: 44%
H1L1:H1L2 normalized median ratio [33]: 96%
H1L1:H1L2 normalized median scalar value ln(r1/f1) [33]: 3.13

Other lines, results leading:

H1L1:H1L2 normalized median ratio [4]: 72%
H1L1:H1L2 normalized median scalar value ln(r1/f1) [4]: 0.95 and 0.96
H1L1:H1L2 normalized median ratio [19]: 15%
H1L1:H1L2 normalized median ratio [5]: 28%
H1L1:H1L2 normalized median ratio [20]: 41%
H1L1:H1L2 normalized median ratio [12]: 53%
H1L1:H1L2 normalized median ratio [21]: 41%
H1L1:H1L2 normalized median ratio [22]: 59%
H1L1:H1L2 normalized median scalar value ln(r1/f1) [22]: 0.36
H1L1:H1L2 normalized median ratio [23]: 59%
H1L1:H1L2 normalized median scalar value ln(r1/f1) [23]: 0.37
H1L1:H1L2 normalized median ratio [14]: 47%
H1L1:H1L2 normalized median scalar value ln(r1/f1) [14]: -0.14
H1L1:H1L2 normalized median ratio [24]: 85%
H1L1:H1L2 normalized median scalar value ln(r1/f1) [24]: 1.75
Substance: D3H44 Fab heavy chain L143E_K145T (Kabat) with C-terminal ABD2-His6 tag

H1L1:H1L2 normalized median scalar value ln(r1/f1) [25]: -0.16
Substance: D3H44 light chain Q124R_T178R

H1L1:H1L2 normalized median ratio [1]: 89%
H1L1:H1L2 normalized median scalar value ln(r1/f1) [1]: 2.14
H1L1:H1L2 normalized median ratio [3]: 88%
H1L1:H1L2 normalized median scalar value ln(r1/f1) [3]: 2
H1L1:H1L2 normalized median ratio [4]: 84%
H1L1:H1L2 normalized median scalar value ln(r1/f1) [4]: 1.65
H1L1:H1L2 normalized median ratio [26]: 83%
H1L1:H1L2 normalized median scalar value ln(r1/f1) [26]: 1.62
H1L1:H1L2 normalized median ratio [5]: 16%
H1L1:H1L2 normalized median ratio [7]: 12% and 17%
H1L1:H1L2 normalized median ratio [27]: 60%
H1L1:H1L2 normalized median scalar value ln(r1/f1) [27]: 0.41
H1L1:H1L2 normalized median ratio [28]: 17%
H1L1:H1L2 normalized median ratio [9]: 11%
H1L1:H1L2 normalized median ratio [29]: 40%
Substance: D3H44 Fab heavy chain L143E_K145T_Q179E (Kabat) with C-terminal ABD2-His6 tag
